Laboratory results published in the supplement of paper PMC7125110.
± gives the standard error. Variants at the floor of the assay were thinned out.

B1: glmS ribozyme (parent)
chain: AUAAAAGCGCCAGAACUACAGAAAUGUAGUUGACGAGGAGGAGGUUUAUCGAAUUUUCGGCGGAUGCCUCCAAA

What was measured:
Conditions in all cases: with glucosamine-6-phosphate
[1] = variants of: B1; test: self-cleavage kobs at 640 uM GlcN6P; higher = faster cleavage; RNA array
How it was run: (§1)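 Barcoded ribozyme variants were transcribed in situ on sequenced MiSeq chips by E. coli RNA polymerase. At 37 °C, a hybridised Cy3 probe tracked them while glucosamine-6-phosphate (40 μM to 10 mM) in HEPES/KCl/Mg(OAc)2 buffer flowed in and tiles were imaged over ~14 h. Per-tile medians of signals normalised to baseline and to non-cleaving reference variants were fit to one- or two-exponential decays, giving kobs. kcat and KM came from weighted Michaelis–Menten fits across concentrations.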

[2] = variants of: B1; test: self-cleavage kobs at 2500 uM GlcN6P; higher = faster cleavage; RNA array
How it was run: as §1

[3] = variants of: B1; test: self-cleavage kobs at 10000 uM GlcN6P; higher = faster cleavage; RNA array
How it was run: as §1

Row | Variant | self-cleavage kobs at 640 uM GlcN6P [1] [s⁻¹] | self-cleavage kobs at 2500 uM GlcN6P [2] [s⁻¹] | self-cleavage kobs at 10000 uM GlcN6P [3] [s⁻¹]
1 | G40U C50G | < 1e-05 | < 1e-05 | < 1e-05
2 | A6G C50U A64C C71U | – | < 1e-05 | –
3 | A39U A48U U55C G59U | < 1e-05 | < 1e-05 | –
4 | A53G U54G U55G C61A C70U | 0.000595 ± 0.00019 | 7.21e-05 ± 2.5e-05 | –
5 | U49G G62C | < 1e-05 | – | –
6 | A42U G44U C61G | < 1e-05 | < 1e-05 | –
7 | G43C U49A U57G C68G | < 1e-05 | – | –
8 | A48G A52U G59U | < 1e-05 | < 1e-05 | –
9 | A6G C50G C61U | – | 0.000108 ± 3.5e-05 | –
10 | G44C U57G C58U | < 1e-05 | – | –
11 | A6C C34A A39G U45A | – | < 1e-05 | –
12 | G60A C61G C67G | < 1e-05 | – | –
13 | U45G U46A U57G | < 1e-05 | – | –
14 | G44C C68A U69G | < 1e-05 | – | –
15 | U54A G66A C71U | 0.00501 ± 0.00099 | – | –
16 | A6C G44U U54G U57C | – | < 1e-05 | –
17 | U54G U57A C58G C68A | 0.000592 ± 0.00015 | – | –
18 | A48G U55C G59C | < 1e-05 | < 1e-05 | –

Row | Variant | self-cleavage kobs at 640 uM GlcN6P [1] [s⁻¹] | self-cleavage kobs at 2500 uM GlcN6P [2] [s⁻¹] | self-cleavage kobs at 10000 uM GlcN6P [3] [s⁻¹]
19 | A42U U57G | < 1e-05 | < 1e-05 | –
20 | G40A G51A U55A | < 1e-05 | – | –
21 | A52U A53C C71G | < 1e-05 | < 1e-05 | –
22 | A6C C10U G37U C50G U54C C70A | – | 0.000151 ± 3.4e-05 | –
23 | U56A C58G G59A G60A | < 1e-05 | < 1e-05 | –
24 | U54A A64G C68G | 5.8e-05 ± 2.1e-05 | 0.000109 ± 3.5e-05 | –
25 | A42C A52U A64G | < 1e-05 | < 1e-05 | –
26 | U55C C61G G62C | < 1e-05 | – | –
27 | U46A U56C C68A | < 1e-05 | < 1e-05 | –
28 | A6G A48G C71A | – | < 1e-05 | –
29 | C50G A53U A64G | < 1e-05 | – | –
30 | U55C C58A C70U | 4.34e-05 ± 1.9e-05 | 5.54e-05 ± 1.5e-05 | –
31 | G40C C67G C70G | < 1e-05 | – | < 1e-05
32 | A6C G7C G63A | – | < 1e-05 | –
33 | G43C A52C C68A | < 1e-05 | – | –
34 | U46G C58A A64U | < 1e-05 | < 1e-05 | –
35 | G59C A64G U69G | < 1e-05 | – | –
36 | U65G A72C | 0.000308 ± 7.4e-05 | – | –
